Results on 12 molecules are retold here after US20260216366A1, “CONJUGATE AND USES THEREOF” (Full-Life Technologies UK Limited, priority 2022, published 2026).

B1: CLDN18.2-L007: Claudin 18.2 sdAb (SEQ ID NO. 1) conjugated with functional linker L007 (conjugate)
VHH: EVQLVESGGGLVQPGGSLRLSCAASGSFFRIVAMGWYRQAPGSQRELVATITRGGSTYYADSVKGRFTISRDNAKNTLYLQMNSLRAEDTAVYYCNVRVEVPFMQPNDYWGQGTLVTVSS
modifications: functional linker L007 conjugated
B2: CLDN18.2-L008: Claudin 18.2 sdAb (SEQ ID NO. 1) conjugated with functional linker L008 (conjugate)
VHH: EVQLVESGGGLVQPGGSLRLSCAASGSFFRIVAMGWYRQAPGSQRELVATITRGGSTYYADSVKGRFTISRDNAKNTLYLQMNSLRAEDTAVYYCNVRVEVPFMQPNDYWGQGTLVTVSS
modifications: functional linker L008 conjugated
B3: CLDN18.2-L012: Claudin 18.2 sdAb (SEQ ID NO. 1) conjugated with functional linker L012 (conjugate)
VHH: EVQLVESGGGLVQPGGSLRLSCAASGSFFRIVAMGWYRQAPGSQRELVATITRGGSTYYADSVKGRFTISRDNAKNTLYLQMNSLRAEDTAVYYCNVRVEVPFMQPNDYWGQGTLVTVSS
modifications: functional linker L012 conjugated
B4: CLDN18.2-L003: Claudin 18.2 sdAb (SEQ ID NO. 1) conjugated with functional linker L003 (conjugate)
VHH: EVQLVESGGGLVQPGGSLRLSCAASGSFFRIVAMGWYRQAPGSQRELVATITRGGSTYYADSVKGRFTISRDNAKNTLYLQMNSLRAEDTAVYYCNVRVEVPFMQPNDYWGQGTLVTVSS
modifications: functional linker L003 conjugated
B5: CLDN18.2-L010: Claudin 18.2 sdAb (SEQ ID NO. 1) conjugated with functional linker L010 (conjugate)
VHH: EVQLVESGGGLVQPGGSLRLSCAASGSFFRIVAMGWYRQAPGSQRELVATITRGGSTYYADSVKGRFTISRDNAKNTLYLQMNSLRAEDTAVYYCNVRVEVPFMQPNDYWGQGTLVTVSS
modifications: functional linker L010 conjugated
B6: CLDN18.2-L009: Claudin 18.2 sdAb (SEQ ID NO. 1) conjugated with functional linker L009 (conjugate)
VHH: EVQLVESGGGLVQPGGSLRLSCAASGSFFRIVAMGWYRQAPGSQRELVATITRGGSTYYADSVKGRFTISRDNAKNTLYLQMNSLRAEDTAVYYCNVRVEVPFMQPNDYWGQGTLVTVSS
modifications: functional linker L009 conjugated
B7: CLDN18.2-L011: Claudin 18.2 sdAb (SEQ ID NO. 1) conjugated with functional linker L011 (conjugate)
VHH: EVQLVESGGGLVQPGGSLRLSCAASGSFFRIVAMGWYRQAPGSQRELVATITRGGSTYYADSVKGRFTISRDNAKNTLYLQMNSLRAEDTAVYYCNVRVEVPFMQPNDYWGQGTLVTVSS
modifications: functional linker L011 conjugated
B8: CLDN18.2-L006: Claudin 18.2 sdAb (SEQ ID NO. 1) conjugated with functional linker L006 (conjugate)
VHH: EVQLVESGGGLVQPGGSLRLSCAASGSFFRIVAMGWYRQAPGSQRELVATITRGGSTYYADSVKGRFTISRDNAKNTLYLQMNSLRAEDTAVYYCNVRVEVPFMQPNDYWGQGTLVTVSS
modifications: functional linker L006 conjugated
B9: CLDN18.2-L005: Claudin 18.2 sdAb (SEQ ID NO. 1) conjugated with functional linker L005 (conjugate)
VHH: EVQLVESGGGLVQPGGSLRLSCAASGSFFRIVAMGWYRQAPGSQRELVATITRGGSTYYADSVKGRFTISRDNAKNTLYLQMNSLRAEDTAVYYCNVRVEVPFMQPNDYWGQGTLVTVSS
modifications: functional linker L005 conjugated
B10: CLDN18.2-DOTAGA: Claudin 18.2 sdAb (SEQ ID NO. 1) conjugated with DOTAGA, used as control for chelating imaging radioisotope (conjugate)
VHH: EVQLVESGGGLVQPGGSLRLSCAASGSFFRIVAMGWYRQAPGSQRELVATITRGGSTYYADSVKGRFTISRDNAKNTLYLQMNSLRAEDTAVYYCNVRVEVPFMQPNDYWGQGTLVTVSS
modifications: DOTAGA chelator conjugated

One series is described as follows: Pharmacokinetic study of CLDN18.2-linker conjugates (serum ELISA, NCA). Type of series: in vivo, BALB/c mice. The note with it: BALB/c mice, intravenous, about 1 mg/kg, serum, over 48 hours. How it is done:
The in vivo pharmacokinetic profile of the CLDN18.2-linker conjugates was analyzed. Briefly, BALB/c mice were administered with the conjugates by intravenous injection at a dose of about 1 mg/kg. Then, whole blood of the animal was collected at different time points over 48 hours.
The whole blood was collected into a tube without anticoagulation and maintained at room temperature for more than 30 minutes, followed by centrifuge at approximately 5000 rpm at 4° C. for 5 minutes to obtain serum. Concentration of the conjugates in serum was then measured by ELISA using HRP-labeled goat anti-alpaca IgG VHH domain secondary antibody. The data was further analyzed using PK Solver software, and the […] (NCA) was used to evaluate the pharmacokinetic parameters, as shown in Table 7 and FIG. 2.
Turning to B1, the AUCall was 33.1 ± 4.92 µg·h/mL, the Cl came out at 0.027 ± 0.003 L/h/kg, the T1/2 stood at 361 ± 73.8 min and the Vd is 0.183 ± 0.014 L/kg.
For B2, the AUCall came out at 1.88 ± 0.177 µg·h/mL, the Cl turned out to be 0.439 ± 0.022 L/h/kg, the T1/2 was 38.2 ± 4.02 min and the Vd came out at 0.375 ± 0.043 L/kg.
For B3 the same measures were 2.22 ± 0.223 µg·h/mL, 0.421 ± 0.042 L/h/kg, 17.3 ± 1.14 min and 0.151 ± 0.025 L/kg.
B4 displayed an AUCall of 0.460 ± 0.077 µg·h/mL, a Cl of 1.81 ± 0.246 L/h/kg, a T1/2 of 11.2 ± 1.56 min and a Vd of 0.431 ± 0.006 L/kg.
With B5, the AUCall turned out to be 14.5 ± 0.149 µg·h/mL, the Cl is 0.061 ± 0.002 L/h/kg, the T1/2 came out at 175 ± 7.02 min and the Vd is 0.199 ± 0.012 L/kg.
On the same counts, the results for B6 are 148 ± 5.14 µg·h/mL, 0.005 ± 0.000 L/h/kg, 1490 ± 323 min and 0.166 ± 0.023 L/kg.
On to B7, for which the AUCall stood at 15.7 ± 0.816 µg·h/mL, the Cl stood at 0.057 ± 0.001 L/h/kg, the T1/2 came to 90 ± 10.1 min and the Vd worked out at 0.106 ± 0.008 L/kg.
Consider B8, for which the AUCall stood at 0.650 ± 0.069 µg·h/mL, the Cl is 1.36 ± 0.132 L/h/kg, the T1/2 worked out at 13.5 ± 0.36 min and the Vd was 0.408 ± 0.026 L/kg.
On the same counts, the results for B9 are 0.881 ± 0.118 µg·h/mL, 1.07 ± 0.120 L/h/kg, 13.4 ± 1.56 min and 0.284 ± 0.017 L/kg.
For B10 the same measures were 1.45 ± 0.149 µg·h/mL, 0.610 ± 0.072 L/h/kg, 32.9 ± 2.52 min and 0.245 ± 0.032 L/kg.

Staying with this series, now noted: FIG. 2; CLDN18.2 conjugate of the named linker compared to the control group.
Take `Cc1ccc(CCCC(=O)NCCCCC(NC(=O)CNC(=O)CCC(C(=O)O)N2CCN(CC(=O)O)CCN(CC(=O)O)CCN(CC(=O)O)CC2)C(=O)NCc2ccc(N=C=S)cc2)cc1` (stereo not drawn) [L010]: the “blood circulation of the CLDN18.2 conjugates” value is “significantly prolonged blood circulation”.
The same measure, in the same setting: the same measure for `CCCCCCCCCCCCC(=O)NCCCCC(NC(=O)CNC(=O)CCC(C(=O)O)N1CCN(CC(=O)O)CCN(CC(=O)O)CCN(CC(=O)O)CC1)C(=O)NCc1ccc(N=C=S)cc1` (stereo not drawn) [L011]: “significantly prolonged blood circulation”.
